{"source": "patent US20200199204A1", "assay_in_all_cases": "cell-based or functional assay", "key": {"[1]": {"biological_target": "Env of SIVmac251.30 (SIV (SIVmac251))"}, "[2]": {"biological_target": "HIV-1 Env of 0260.v5.c36 (HIV-1)"}, "[3]": {"biological_target": "HIV-1 Env of 3016.V5.c36 (HIV-1)"}, "[4]": {"biological_target": "HIV-1 Env of 6405.v4.c34 (HIV-1)"}, "[5]": {"biological_target": "HIV-1 Env of 6535.3 (HIV-1)"}, "[6]": {"biological_target": "HIV-1 Env of 96ZM651.02 (HIV-1)"}, "[7]": {"biological_target": "HIV-1 Env of AC10.29 (HIV-1)"}, "[8]": {"biological_target": "HIV-1 Env of BG505.w6m (HIV-1)"}, "[9]": {"biological_target": "HIV-1 Env of C1080.c3 (HIV-1)"}, "[10]": {"biological_target": "HIV-1 Env of CAAN.A2 (HIV-1)"}, "[11]": {"biological_target": "HIV-1 Env of CAP210.E8 (HIV-1)"}, "[12]": {"biological_target": "HIV-1 Env of CAP244.D3 (HIV-1)"}, "[13]": {"biological_target": "HIV-1 Env of CAP256.PI (HIV-1)"}, "[14]": {"biological_target": "HIV-1 Env of CAP256.SU (HIV-1)"}, "[15]": {"biological_target": "HIV-1 Env of CAP45.G3 (HIV-1)"}, "[16]": {"biological_target": "HIV-1 Env of CM244.ec1 (HIV-1)"}, "[17]": {"biological_target": "HIV-1 Env of CNE3 (HIV-1)"}, "[18]": {"biological_target": "HIV-1 Env of DU156.12 (HIV-1)"}, "[19]": {"biological_target": "HIV-1 Env of DU172.17 (HIV-1)"}, "[20]": {"biological_target": "HIV-1 Env of DU422.01 (HIV-1)"}, "[21]": {"biological_target": "HIV-1 Env of KER2008.12 (HIV-1)"}, "[22]": {"biological_target": "HIV-1 Env of KER2018.11 (HIV-1)"}, "[23]": {"biological_target": "HIV-1 Env of MB201 (HIV-1)"}, "[24]": {"biological_target": "HIV-1 Env of MB539.2B7 (HIV-1)"}, "[25]": {"biological_target": "HIV-1 Env of PVO.04 (HIV-1)"}, "[26]": {"biological_target": "HIV-1 Env of Q168.a2 (HIV-1)"}, "[27]": {"biological_target": "HIV-1 Env of Q23.17 (HIV-1)"}, "[28]": {"biological_target": "HIV-1 Env of Q259.d2.17 (HIV-1)"}, "[29]": {"biological_target": "HIV-1 Env of Q461.e2 (HIV-1)"}, "[30]": {"biological_target": "HIV-1 Env of Q769.d22 (HIV-1)"}, "[31]": {"biological_target": "HIV-1 Env of Q842.d12 (HIV-1)"}, "[32]": {"biological_target": "HIV-1 Env of QH0692.42 (HIV-1)"}, "[33]": {"biological_target": "HIV-1 Env of REJO.67 (HIV-1)"}, "[34]": {"biological_target": "HIV-1 Env of RHPA.7 (HIV-1)"}, "[35]": {"biological_target": "HIV-1 Env of RW020.2 (HIV-1)"}, "[36]": {"biological_target": "HIV-1 Env of SC422.8 (HIV-1)"}, "[37]": {"biological_target": "HIV-1 Env of TH976.17 (HIV-1)"}, "[38]": {"biological_target": "HIV-1 Env of THRO.18 (HIV-1)"}, "[39]": {"biological_target": "HIV-1 Env of TRJO.58 (HIV-1)"}, "[40]": {"biological_target": "HIV-1 Env of TRO.11 (HIV-1)"}, "[41]": {"biological_target": "HIV-1 Env of UG037.8 (HIV-1)"}, "[42]": {"biological_target": "HIV-1 Env of WITO.33 (HIV-1)"}, "[43]": {"biological_target": "HIV-1 Env of ZM109.4 (HIV-1)"}, "[44]": {"biological_target": "HIV-1 Env of ZM135.10a (HIV-1)"}, "[45]": {"biological_target": "HIV-1 Env of ZM197.7 (HIV-1)"}, "[46]": {"biological_target": "HIV-1 Env of ZM214.15 (HIV-1)"}, "[47]": {"biological_target": "HIV-1 Env of ZM233.6 (HIV-1)"}, "[48]": {"biological_target": "HIV-1 Env of ZM249.1 (HIV-1)"}, "[49]": {"biological_target": "HIV-1 Env of ZM53.12 (HIV-1)"}}}
{"substance": "CAP256-VRC26.24 (antibody)", "values": [{"measurement": "IC50 (neutralization, TZM-bl)", "setting": "[1]", "value": "> 50", "unit": "µg/mL"}, {"measurement": "IC50", "setting": "[2]", "value": "> 50", "unit": "µg/mL"}, {"measurement": "IC50", "setting": "[3]", "value": 2.12, "unit": "µg/mL"}, {"measurement": "IC50", "setting": "[4]", "value": "> 50", "unit": "µg/mL"}, {"measurement": "IC50", "setting": "[5]", "value": "> 50", "unit": "µg/mL"}, {"measurement": "IC50", "setting": "[6]", "value": "> 50", "unit": "µg/mL"}, {"measurement": "IC50", "setting": "[7]", "value": "> 50", "unit": "µg/mL"}, {"measurement": "IC50", "setting": "[8]", "value": 5.63, "unit": "µg/mL"}, {"measurement": "IC50", "setting": "[9]", "value": 17.4, "unit": "µg/mL"}, {"measurement": "IC50", "setting": "[10]", "value": "> 50", "unit": "µg/mL"}, {"measurement": "IC50", "setting": "[11]", "value": 0.23, "unit": "µg/mL"}, {"measurement": "IC50", "setting": "[12]", "value": "> 50", "unit": "µg/mL"}, {"measurement": "IC50", "setting": "[13]", "value": "> 50", "unit": "µg/mL"}, {"measurement": "IC50", "setting": "[14]", "value": 0.04, "unit": "µg/mL"}, {"measurement": "IC50", "setting": "[15]", "value": 0.672, "unit": "µg/mL"}, {"measurement": "IC50", "setting": "[16]", "value": "> 50", "unit": "µg/mL"}, {"measurement": "IC50 (neutralization, TZM-bl)", "setting": "[17]", "value": "> 50", "unit": "µg/mL"}, {"measurement": "IC50", "setting": "[18]", "value": 10.8, "unit": "µg/mL"}, {"measurement": "IC50", "setting": "[19]", "value": "> 50", "unit": "µg/mL"}, {"measurement": "IC50", "setting": "[20]", "value": 21.6, "unit": "µg/mL"}, {"measurement": "IC50", "setting": "[21]", "value": "> 50", "unit": "µg/mL"}, {"measurement": "IC50", "setting": "[22]", "value": 1.1, "unit": "µg/mL"}, {"measurement": "IC50", "setting": "[23]", "value": "> 50", "unit": "µg/mL"}, {"measurement": "IC50", "setting": "[24]", "value": "> 50", "unit": "µg/mL"}, {"measurement": "IC50", "setting": "[25]", "value": "> 50", "unit": "µg/mL"}, {"measurement": "IC50", "setting": "[26]", "value": 3.41, "unit": "µg/mL"}, {"measurement": "IC50", "setting": "[27]", "value": 5.92, "unit": "µg/mL"}, {"measurement": "IC50", "setting": "[28]", "value": 31.1, "unit": "µg/mL"}, {"measurement": "IC50", "setting": "[29]", "value": "> 50", "unit": "µg/mL"}, {"measurement": "IC50", "setting": "[30]", "value": "> 50", "unit": "µg/mL"}, {"measurement": "IC50", "setting": "[31]", "value": "> 50", "unit": "µg/mL"}, {"measurement": "IC50", "setting": "[32]", "value": "> 50", "unit": "µg/mL"}, {"measurement": "IC50", "setting": "[33]", "value": "> 50", "unit": "µg/mL"}, {"measurement": "IC50", "setting": "[34]", "value": "> 50", "unit": "µg/mL"}, {"measurement": "IC50", "setting": "[35]", "value": "> 50", "unit": "µg/mL"}, {"measurement": "IC50", "setting": "[36]", "value": "> 50", "unit": "µg/mL"}, {"measurement": "IC50 (neutralization, TZM-bl)", "setting": "[37]", "value": "> 50", "unit": "µg/mL"}, {"measurement": "IC50", "setting": "[38]", "value": "> 50", "unit": "µg/mL"}, {"measurement": "IC50", "setting": "[39]", "value": "> 50", "unit": "µg/mL"}, {"measurement": "IC50", "setting": "[40]", "value": "> 50", "unit": "µg/mL"}, {"measurement": "IC50", "setting": "[41]", "value": "> 50", "unit": "µg/mL"}, {"measurement": "IC50", "setting": "[42]", "value": "> 50", "unit": "µg/mL"}, {"measurement": "IC50", "setting": "[43]", "value": 16.5, "unit": "µg/mL"}, {"measurement": "IC50", "setting": "[44]", "value": "> 50", "unit": "µg/mL"}, {"measurement": "IC50", "setting": "[45]", "value": 12.6, "unit": "µg/mL"}, {"measurement": "IC50", "setting": "[46]", "value": 32, "unit": "µg/mL"}, {"measurement": "IC50", "setting": "[47]", "value": 1.67, "unit": "µg/mL"}, {"measurement": "IC50", "setting": "[48]", "value": 13.6, "unit": "µg/mL"}, {"measurement": "IC50", "setting": "[49]", "value": 0.047, "unit": "µg/mL"}]}
